Experimental data as given in patent US20240101710A1.

Tests used:
[1] = target: anti-BCMA CAR clone P5A2 expressed on the cell surface; assay: flow cytometry, anti-id staining on the PE-A axis against APC-A, Anti-BCMA CAR Clone P5A2 cells; Q2 prints 0.42, Q4 33.1, Q1 0.15
anti-BCMA scFv P5A2 [2] = assay: Biacore (SPR); H6 purified from hybridoma
[3] = target: anti-BCMA CAR clone P5A2 expressed on the cell surface; assay: flow cytometry, SSC against CAR (anti-id) staining, cell line Anti-BCMA CAR clone P5A2, hybridoma-derived H6 at '0.063G' as printed; Q4 prints 74.0
anti-BCMA scFv P5A2 [4] = assay: Biacore (SPR); recombinant H6
[5] = target: anti-BCMA CAR clone P5A2 expressed on the cell surface; assay: flow cytometry, SSC against CAR (anti-id) staining, cell line Anti-BCMA CAR clone P5A2, recombinant H6 at '0.063G' as printed; Q4 prints 72.4

Chain of anti-BCMA CAR clone P5A2 expressed on the cell surface (chain, as listed by the source limits assumed): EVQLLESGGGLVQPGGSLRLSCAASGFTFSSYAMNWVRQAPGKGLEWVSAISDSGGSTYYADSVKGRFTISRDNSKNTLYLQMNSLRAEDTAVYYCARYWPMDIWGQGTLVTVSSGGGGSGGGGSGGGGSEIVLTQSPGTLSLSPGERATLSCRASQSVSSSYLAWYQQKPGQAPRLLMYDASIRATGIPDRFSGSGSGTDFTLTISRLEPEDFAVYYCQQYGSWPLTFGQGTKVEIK

percent of cells in anti-id-positive quadrant Q3 [1]: 66.3% | Kd (anti-BCMA scFv P5A2 [2]): 3.73 nM | koff (anti-BCMA scFv P5A2 [2]): 0.00693 s⁻¹ | kon (anti-BCMA scFv P5A2 [2]): 1.86e+06 M⁻¹ s⁻¹ | t1/2 (anti-BCMA scFv P5A2 [2]): 1.67 min | percent of cells in CAR-positive gate Q3 [3]: 26% | Kd (anti-BCMA scFv P5A2 [4]): 3.71 nM | koff (anti-BCMA scFv P5A2 [4]): 0.00705 s⁻¹ | kon (anti-BCMA scFv P5A2 [4]): 1.9e+06 M⁻¹ s⁻¹ | t1/2 (anti-BCMA scFv P5A2 [4]): 1.64 min | percent of cells in CAR-positive gate Q3 [5]: 27.6%
B1: anti-idiotypic antibody clone E2008.51H1.H6 (H6) (antibody, V domains shown)
VH: QVTLKESGPGILQPSQTLSLTCSFSGFSLNTSAMGVGWIRQPSGKGLEWLAHIWWNDDHYYNPALKSRVTISKDASNNQVFLKIASVVTADTATYYCARSIAPVVPTPFAYWGQGTLVTVSA
VL: DIQMTQSSSSFSVSLGDRVTITCKASEDIYNRLAWFQQKPGNAPRLLISGATRLETGVPSRFSGSGSGKDYTLSITSLQTEDVGTYYCQQYWSSSWTFGGGTKLEIK
